± gives the uncertainty stated by the source.
Assay: self-splicing fitness, log relative to wild type (ln ratio); higher = more splicing; Tetrahymena group I intron in knt gene, E. coli kanamycin selection, DiMSum; sequences stand for … in CUCUCU…GGAGGGAAAAGUUAUCAGGCAUGCACCUGGUAGCUAGUCUUUAAACCAAUAGAUUGCAUCGGUUUAAAAGGCAAGACCGUCAAAUUGCGGGAAAGGGGUCAACAGCCGUUCAGUACCAAGUCUCAGGGGAAACUUUGAGAUGGCCUUGCAAAGGGUAUGGUAAUAAGCUGACGGACAUGGUCCUAACCACGCAGCCAAGUCCUAAGUCAACAGAUCUUCUGUUGAUAUGGAUGCAGUUCACAGACUAAAUGUCGGUCGGGGAAGAUGUAUUCUUCUCAUAAGAUAUAGUCGGACCUCUCCUUAAUGGGAGCUAGCGGAUGAAGUGAUGCAACACUGGAGCCGCUGGGAACUAAUUUGUAUGCGAAAGUAUAUUGAUUAGUUUUGGAGUACUCGUGGUCG
How it was run: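 Fitness was computed with DiMSum as the error-weighted combination of replicate fold changes, kanamycin versus none, each normalised to wild type. The library randomised all eight intron nucleotides of the P1ex region, with the intron placed in the knt kanamycin-resistance gene on pET-22b(+) in E. coli BL21(DE3). Six replicate transformations were grown overnight at 37°C or 30°C on LB agar with or without 25 μg/mL kanamycin, plus 100 μg/mL carbenicillin, 50 μM IPTG and 0.2% rhamnose. Pooled colonies were amplicon-sequenced on an Illumina HiSeq 2500.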

Row | Sequence | self-splicing fitness (ln) (30 °C) | self-splicing fitness (ln) (37 °C)
1 | GGAGAGCAAUAUUACGGUCG | -1.18 ± 0.25 | -1.56 ± 0.29
2 | GGAGAGCAAUAUUACGUAGG | -3.43 ± 0.25 | -0.82 ± 0.25
3 | GGAGAGCAAUAUUACGUCCU | -3.2 ± 0.24 | -3.27 ± 0.43
4 | GGAGAGCAAUAUUACGUCGA | -2.7 ± 0.32 | -1.53 ± 0.26
5 | GGAGAGCAAUAUUACGUCGU | -2.89 ± 0.21 | -2.5 ± 0.27
6 | GGAGAGCAAUAUUACGUGUG | -4.29 ± 0.34 | -3.29 ± 0.27
7 | GGAGAGCAAUAUUACGUUAG | -3.5 ± 0.23 | -1.54 ± 0.41
8 | GGAGAGCAAUAUUACGUUGU | -4.01 ± 0.19 | -3.77 ± 0.24
9 | GGAUAGCAAUAUUACGAAAG | -2.79 ± 0.48 | 
10 | GGAUAGCAAUAUUACGAACC | -2.49 ± 0.36 | -1.77 ± 0.28
11 | GGAUAGCAAUAUUACGAAUC | -1.72 ± 0.088 | -1.8 ± 0.12
12 | GGAUAGCAAUAUUACGACUA | -1.37 ± 0.42 | -1.11 ± 0.28
13 | GGAUAGCAAUAUUACGAUCG | -0.534 ± 0.095 | 0.652 ± 0.14
14 | GGAUAGCAAUAUUACGCCUA | -1.45 ± 0.14 | -0.0155 ± 0.17
15 | GGAUAGCAAUAUUACGCUGG | -2.25 ± 0.15 | -1.05 ± 0.18
16 | GGAUAGCAAUAUUACGGAGU | -2.95 ± 0.34 | -2.16 ± 0.42
17 | GGAUAGCAAUAUUACGGAUU | -1.79 ± 0.12 | -0.787 ± 0.12
18 | GGAUAGCAAUAUUACGGCAG |  | -2.18 ± 0.22
19 | GGAUAGCAAUAUUACGGUGG | -3.85 ± 0.18 | -2.48 ± 0.14
20 | GGAUAGCAAUAUUACGUACA | -1.42 ± 0.097 | -0.395 ± 0.098
21 | GGAUAGCAAUAUUACGUAUG | -1.66 ± 0.28 | -0.951 ± 0.23
22 | GGAUAGCAAUAUUACGUGAG | -1.33 ± 0.11 | 0.321 ± 0.1

Row | Sequence | self-splicing fitness (ln) (30 °C) | self-splicing fitness (ln) (37 °C)
23 | GGAUAGCAAUAUUACGUGAU | -2.44 ± 0.06 | -1.06 ± 0.074
24 | GGAUAGCAAUAUUACGUUGU | -3.13 ± 0.2 | -1.58 ± 0.15
25 | GGCAAGCAAUAUUACGAAAC | -0.925 ± 0.13 | -0.903 ± 0.16
26 | GGCAAGCAAUAUUACGAGUU | -1.94 ± 0.081 | -0.521 ± 0.088
27 | GGCAAGCAAUAUUACGCGAC | -3.25 ± 0.23 | -2.23 ± 0.27
28 | GGCAAGCAAUAUUACGCGAU | -2.6 ± 0.25 | -2.37 ± 0.24
29 | GGCAAGCAAUAUUACGCGCC |  | -1.77 ± 0.28
30 | GGCAAGCAAUAUUACGCGGA | -0.732 ± 0.095 | -0.268 ± 0.094
31 | GGCAAGCAAUAUUACGCGUA | -0.585 ± 0.065 | -0.212 ± 0.076
32 | GGCAAGCAAUAUUACGCUAG | -3.39 ± 0.24 | -2.83 ± 0.37
33 | GGCAAGCAAUAUUACGCUGU | -4.24 ± 0.23 | -2.05 ± 0.2
34 | GGCAAGCAAUAUUACGCUUU | -1.58 ± 0.12 | -0.416 ± 0.12
35 | GGCAAGCAAUAUUACGGAUG | -2.34 ± 0.15 | -0.798 ± 0.15
36 | GGCAAGCAAUAUUACGGCCC | -3.62 ± 0.36 | -1.85 ± 0.3
37 | GGCAAGCAAUAUUACGUAAC | -0.613 ± 0.064 | -0.533 ± 0.089
38 | GGCAAGCAAUAUUACGUUCA | -0.364 ± 0.092 | 0.553 ± 0.11
39 | GGCAAGCAAUAUUACGUUUA | -1.29 ± 0.1 | -0.0113 ± 0.11
40 | GGCCAGCAAUAUUACGAAUG | -4.74 ± 0.39 | -2.17 ± 0.22
41 | GGCCAGCAAUAUUACGAAUU | -3.05 ± 0.19 | -1.03 ± 0.11
42 | GGCCAGCAAUAUUACGAGAA |  | -2.06 ± 0.36
43 | GGCCAGCAAUAUUACGAGUG | -2.55 ± 0.11 | -1.14 ± 0.093

— the supplement of paper PMC7877785
